The RNAGym collection of RNA variant scans (doi:10.1093/molbev/msab373)

B1: Azoarcus group I ribozyme (parent)
chain: GUGCCUUGCGCCGGGAAACCACGCAAGGGAUGGUGUCAAAUUCGGCGAAACCUAAGCGCCCGCCCGGGCGUAUGGCAACGCCGAGCCAAGCUUCGGCGCCUGCGCCGAUGAAGGUGUAGAGACUAGACGGCACCCACCUAAGGCAAACGCUAUGGUGAAGGCAUAGUCCAGGGAGUGGCGAAAGUCACACAAACCGG

Variants of: B1
Test: reverse-splicing fitness (ratio to wild type); higher = more active; in vitro selection; Mg2+ level not given
Outline: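 An in vitro group I ribozyme library with randomized positions was T7-transcribed and gel-purified. In triplicate, 10 pmol RNA in EPPS pH 7.5 was reacted with 50 pmoles of a 30-nt RNA substrate for 1 h at 37 °C across several added MgCl2 levels (1–48 mM), then stopped with EDTA. Products were reverse transcribed from a substrate-complementary primer, PCR-amplified and sequenced (HiSeq 4000). Fitness is a variant's read proportion after selection over that before, normalised to wild type.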

In order of falling reverse-splicing fitness:
1. A111C A145U  0.839
2. A111C A145G  0.83
3. A111C A145U C150U  0.731
4. A111C A145G C150U  0.679
5. A111C A145G U176A  0.432
6. A111C A145U U176A  0.424
7. A111C A145G C150U U176C  0.404
8. A111C A145C U176A  0.402
9. A111C A145G U176C  0.401
10. A111C A145U U176C  0.398
11. A111C A145C U176C  0.372
12. A111C A145U C150U U176A  0.365
13. A111C A145U C150U U176C  0.36
14. A111C A145C C150U U176C  0.349
15. A111C A145G C150U U176A  0.313
16. A111C A145G C150A  0.31
17. A111C C150A  0.303
18. A111C A145U C150A  0.286
19. A111C A145U U176G  0.276
20. A111C A145U C150G  0.219
21. A111C A145C U176G  0.217
22. A111C A145G C150G  0.212
23. A111C A145G U176G  0.185
24. A111C C150G  0.185
25. A111C A145G C150A U176C  0.168
26. A111C A145U C150A U176C  0.166
27. A111C A145U C150U U176G  0.166
28. A111C C150A U176C  0.147
29. A111C A145G C150A U176A  0.146
30. A111C A145G C150U U176G  0.135
31. A111C A145G C150G U176C  0.13
32. A111C A145G C169U  0.126
33. A111C C150A U176A  0.12
34. A111C A145U C150G U176C  0.119
35. A111C A145C C169U  0.118
36. A111C A145U C169U  0.116
37. A111C A145U C150A U176A  0.114
38. A111C A145C C150U U176G  0.11
39. A111C A145U C150G U176A  0.0925
40. A111C A145G C150U C169U  0.0877
41. A111C A145U C150U C169U  0.0751
42. A111C A145G C169G  0.0737
43. A111C A145U C169G  0.071
44. A111C A145G C150G U176A  0.0686
45. A111C A145C C169G  0.0652
46. A111C A145U C150A U176G  0.0589
47. A111C A145G C150A U176G  0.058
48. A111C C150A U176G  0.0531
49. A111C A145G C150U C169G  0.0511
50. A111C A145U C150U C169G  0.0433
51. A111C A145G C169G U176C  0.0392
52. A111C A145G C169A  0.0355
53. A111C A145U C169A  0.0348
54. A111C A145C C169G U176A  0.0324
55. A111C A145C C169G U176C  0.0318
56. A111C A145G C169A U176C  0.0307
57. A111C A145G C169U U176C  0.0294
58. A111C A145G C150A C169G U176C  0.0293
59. A111C A145G C169A U176A  0.0288
60. A111C A145C C169A  0.0285
61. A111C A145G C169G U176A  0.0283
62. A111C A145U C169U U176C  0.0282
63. A111C A145C C169U U176A  0.0278
64. A111C A145G C169U U176A  0.0269
65. A111C A145U C150U C169U U176A  0.0264
66. A111C A145U C169G U176C  0.0264
67. A111C A145U C169U U176A  0.0258
68. A111C A145C C169U U176C  0.0254
69. A111C A145G C150U C169U U176C  0.0254
70. A111C C150A C169G U176C  0.0246
71. A111C A145G C150U C169A  0.0243
72. A111C A145U C150U C169U U176C  0.0241
73. A111C A145G C150U C169U U176A  0.0237
74. A111C A145G C150A C169U  0.0232
75. A111C C150A C169A U176C  0.0227
76. A111C C150A C169U U176A  0.0226
77. A111C A145U C150G U176G  0.022
78. A111C A145U C150U C169G U176C  0.0215
79. A111C A145U C150U C169A  0.0212
80. A111C A145G C150U C169G U176C  0.021
81. A111C A145U C150A C169G U176C  0.0203
82. A111C A145G C150G U176G  0.0194
83. A111C A145G C150A C169U U176C  0.019
84. A111C C150A C169U  0.019
85. A111C A145G C150A C169U U176A  0.0185
86. A111C C150A C169U U176C  0.0184
87. A111C A145G C150A C169A U176C  0.0182
88. A111C C150A C169A U176A  0.0182
89. A111C A145U C169A U176C  0.018
90. A111C A145U C150A C169U  0.0179
91. A111C A145U C169G U176A  0.0179
92. A111C A145U C150G C169U  0.0178
93. A111C A145U C150A C169U U176A  0.0176
94. A111C A145G C150A C169A U176A  0.0169
95. A111C C150A C169G U176A  0.016
96. A111C A145G C150G C169U  0.0157
97. A111C A145G C150A C169G  0.0154
98. A111C A145U C150A C169U U176C  0.0154
99. A111C A145G C150A C169G U176A  0.0153
100. A111C A145G C150U C169A U176C  0.0152
101. A111C A145C C169A U176A  0.0151
102. A111C A145U C150A C169A U176C  0.0151
103. A111C A145U C150U C169G U176A  0.0147
104. A111C A145G C150G C169U U176C  0.0142
105. A111C A145G C150U C169A U176A  0.0141
106. A111C A145U C169A U176A  0.0141
107. A111C A145G C150U C169G U176A  0.0138
108. A111C A145U C150A C169A U176A  0.0138
109. A111C A145U C150G C169U U176C  0.0134
110. A111C A145U C150A C169G U176A  0.0133
111. A111C A145U C150U C169A U176C  0.0129
112. A111C A145G C150A C169A  0.0128
113. A111C C150A C169G  0.0124
114. A111C A145U C150U C169A U176A  0.0122
115. A111C A145G C150G C169A U176A  0.0119
116. A111C A145G C150G C169G  0.0116
117. A111C A145C C169A U176C  0.0113
118. A111C A145U C150A C169G  0.0113
119. A111C C150A C169A  0.0113
120. A111C A145G C150G C169A U176C  0.011
121. A111C A145U C150G C169A U176C  0.011
122. A111C A145G C150G C169U U176A  0.0107
123. A111C C150G C169A U176C  0.0107
124. A111C A145U C150A C169A  0.0106
125. A111C A145G C150G C169G U176C  0.0102
126. A111C A145U C150G C169G  0.0101
127. A111C A145U C150G C169A  0.00994
128. A111C C150G C169A U176A  0.00958
129. A111C A145G C150G C169G U176A  0.00954
130. A111C A145U C150G C169U U176A  0.0095
131. A111C A145G C150G C169A  0.00939
132. A111C C150G C169G  0.00897
133. A111C A145U C150G C169A U176A  0.00872
134. A111C A145G C150A C169A U176G  0.00852
135. A111C A145G C150A C169U U176G  0.00843
136. A111C C150G C169A  0.00834
137. A111C C150A C169U U176G  0.00825
138. A111C A145U C169U U176G  0.00798
139. A111C A145U C150G C169G U176A  0.00777
140. A111C C150A C169A U176G  0.00777
141. A111C A145G C150G C169A U176G  0.00766
142. A111C A145U C150A C169G U176G  0.00765
143. A111C A145U C150U C169U U176G  0.00764
144. A111C C150A C169G U176G  0.00762
145. A111C A145U C150U C169A U176G  0.00758
146. A111C A145U C150A C169A U176G  0.00755
147. A111C A145G C150U C169U U176G  0.00751
148. A111C A145U C150A C169U U176G  0.00751
149. A111C A145G C150U C169G U176G  0.00741
150. A111C A145U C169A U176G  0.00736
151. A111C A145U C150U C169G U176G  0.00734
152. A111C A145G C150A C169G U176G  0.00728
153. A111C A145G C150U C169A U176G  0.00725
154. A111C A145U C169G U176G  0.00719
155. A111C A145G C169U U176G  0.00717
156. A111C A145G C169G U176G  0.00716
157. A111C A145G C150G C169U U176G  0.00713
158. A111C A145C C169A U176G  0.007
159. A111C A145U C150G C169A U176G  0.007
160. A111C A145C C169U U176G  0.00694
161. A111C A145C C169G U176G  0.00691
162. A111C A145U C150G C169U U176G  0.00683
163. A111C A145U C150G C169G U176G  0.0067
164. A111C A145G C169A U176G  0.0065
165. A111C A145U C150G C169G U176C  0.00594
166. A111C A145G C150G C169G U176G  0.00555
167. A111C C150G C169A U176G  0.00532
